According to PMC11290353:

Molecular target: RNA Pol II large subunit (CTD) (UniProt P08775)
Experiment: HA IP; blot Pol II S5P, S2P
Conditions: reference: HA-CMTR1 wild type; sites S26,S28,T30,S31,S46,S49,S51,S53,S55,T57,S63,S64,S66,S75,S89

CMTR1 (from UniProt Q8N1G2) HA-CMTR1 15A
binding against the reference: weaker
